The record followed here is the RNAGym collection of RNA variant scans (doi:10.1093/nar/gkz1192).

The labels stand for the following.
B1: CPEB3 Ribozyme (parent)
chain: UAACAGGGGGCCACAGCAGAAGCGUUCACGUCGCAGCCCCUGUCAGAUUCUGGUGAAUCUGCGAAUUCUGCUGUAUAUCUC

The data set covers variants of B1. Briefly: self-cleavage, relative activity (ratio to wild type); higher = more cleavage; in vitro, sequencing. Put shortly: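 Relative activity was defined as the cleaved/total read fraction for a variant divided by the same fraction for the unmutated ribozyme. CPEB3 self-cleaving ribozyme libraries were made by rounds of error-prone PCR, barcoded, and transcribed in vitro with T7 RNA polymerase for 5 hours at 37°C, and cleavage ran through transcription plus a 15 min DNase I step before EDTA. Illumina sequencing of template-switched reverse transcripts gave the reads, and DNA sequencing mapped the barcodes. Averages come from three batches, using variants with at least 5 reads.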
For UAACAGGGGGCCACAGCAGAAGCGUUCACGUCGCAGCCCCUGUCAGAUUCUGGUGAAUCAGUGAAUUCUGCUGUAUAUCUC [U60A C62U], the self-cleavage came to 0.26.

For the variant UAACAGGGGGCCACAGCAGAAGCGUUCACGUCGCAGCCCCUGUCAGAUUCUGGUGAAUUUGCGAAUUCCGCUGUAUAUCUC [C59U U69C], the self-cleavage stood at 0.48.

With UAACAGGGGGCCACAGCAGAAGCGUUCACGUCGCAGCCCCUGUCAGAUUCUGGUGAAUUUGCGAAUUCAGCUGUAUAUCUC [C59U U69A], the self-cleavage is 0.41.

For the variant UAACAGGGGGCCACAGCAGAAGCGUUCACGUCGCAGCCCCUGUCAGAUUCUGGUGAAUAUGCGAAUUCUGCUGUAUAUCCC [C59A U80C], the self-cleavage stood at 0.38.

With UAACAGGGGGCCACAGCAGAAGCGUUCACGUCGCAGCCCCUGUCAGAUUCUGGUGAAUAUGCGAAUUCUGCUGUAUAUCGC [C59A U80G], the self-cleavage amounted to 0.33.

Consider UAACAGGGGGCCACAGCAGAAGCGUUCACGUCGCAGCCCCUGUCAGAUUCUGGUGAAUCAGCGAAUUCUGCUGUAUAUCUC [U60A], for which the self-cleavage was 0.57.

As to UAACAGGGGGCCACAGCAGAAGCGUUCACGUCGCAGCCCCUGUCAGAUUCUGGUGAAUUUGCGAAUACUGCUGUAUAUCUC [C59U U67A], the self-cleavage came to 0.28.

For UAACAGGGGGCCACAGCAGAAGCGUUCACGUCGCAGCCCCUGUCAGAUUCUGGUGAAUUUGCGAAUCCUGCUGUAUAUCUC [C59U U67C], the self-cleavage is 0.21.

For UAACAGGGGGCCACAGCAGAAGCGUUCACGUCGCAGCCCCUGUCAGAUUCUGGUGAAUCAGCGAAUUCUGCUGUAUGUCUC [U60A A77G], the self-cleavage is 0.56.

Take UAACAGGGGGCCACAGCAGAAGCGUUCACGUCGCAGCCCCUGUCAGAUUCUGGUGAAUCAGCGAAUUCUGCUGUAUUUCUC [U60A A77U]: the self-cleavage amounted to 0.52.

With UAACAGGGGGCCACAGCAGAAGCGUUCACGUCGCAGCCCCUGUCAGAUUCUGGUGAAUCAGCGAAUUGUGCUGUAUAUCUC [U60A C68G], the self-cleavage came out at 0.43.

For the variant UAACAGGGGGCCACAGCAGAAGCGUUCACGUCGCAGCCCCUGUCAGAUUCUGGUGAAUAUGCGAAUUCUGCAGUAUAUCUC [C59A U72A], the self-cleavage was 0.13.

Consider UAACAGGGGGCCACAGCAGAAGCGUUCACGUCGCAGCCCCUGUCAGAUUCUGGUGAAUAUGCGAAUUCUGCCGUAUAUCUC [C59A U72C], for which the self-cleavage was 0.34.

Consider UAACAGGGGGCCACAGCAGAAGCGUUCACGUCGCAGCCCCUGUCAGAUUCUGGUGAAUAUGCGAAUUCUGCUGUUUAUCUC [C59A A75U], for which the self-cleavage is 0.13.

As for UAACAGGGGGCCACAGCAGAAGCGUUCACGUCGCAGCCCCUGUCAGAUUCUGGUGAAUAUGCGAAUUCUGCUGUGUAUCUC [C59A A75G], the self-cleavage was found to be 0.16.

Consider UAACAGGGGGCCACAGCAGAAGCGUUCACGUCGCAGCCCCUGUCAGAUUCUGGUGAAUAUGCGAAUUCUUCUGUAUAUCUC [C59A G70U], for which the self-cleavage is 0.13.

UAACAGGGGGCCACAGCAGAAGCGUUCACGUCGCAGCCCCUGUCAGAUUCUGGUGAAUUUGCGAAUUCUGCUGAAUAUCUC [C59U U74A]: the self-cleavage was 1.6.

Turning to UAACAGGGGGCCACAGCAGAAGCGUUCACGUCGCAGCCCCUGUCAGAUUCUGGUGAAUUUGCGAAUUCUGCUGCAUAUCUC [C59U U74C], the self-cleavage amounted to 1.1.

In the case of UAACAGGGGGCCACAGCAGAAGCGUUCACGUCGCAGCCCCUGUCAGAUUCUGGUGAAUCAGCGAAUUCUGCUGUAUAUAUC [U60A C79A], the self-cleavage is 0.88.

For UAACAGGGGGCCACAGCAGAAGCGUUCACGUCGCAGCCCCUGUCAGAUUCUGGUGAAUGUGCGAAUUCUGCUGUUUAUCUC [C59G A75U], the self-cleavage was 0.28.

Regarding UAACAGGGGGCCACAGCAGAAGCGUUCACGUCGCAGCCCCUGUCAGAUUCUGGUGAAUCAGCGUAUUCUGCUGUAUAUCUC [U60A A64U], the self-cleavage worked out at 0.33.

For the variant UAACAGGGGGCCACAGCAGAAGCGUUCACGUCGCAGCCCCUGUCAGAUUCUGGUGAAUCAGCGGAUUCUGCUGUAUAUCUC [U60A A64G], the self-cleavage was 0.43.

With UAACAGGGGGCCACAGCAGAAGCGUUCACGUCGCAGCCCCUGUCAGAUUCUGGUGAAUCAGCGCAUUCUGCUGUAUAUCUC [U60A A64C], the self-cleavage came out at 0.13.

For UAACAGGGGGCCACAGCAGAAGCGUUCACGUCGCAGCCCCUGUCAGAUUCUGGUGAAUAUGCGAAUUAUGCUGUAUAUCUC [C59A C68A], the self-cleavage worked out at 0.19.

For UAACAGGGGGCCACAGCAGAAGCGUUCACGUCGCAGCCCCUGUCAGAUUCUGGUGAAUGUGCGAACUCUGCUGUAUAUCUC [C59G U66C], the self-cleavage was 0.19.

Turning to UAACAGGGGGCCACAGCAGAAGCGUUCACGUCGCAGCCCCUGUCAGAUUCUGGUGAAUUUGCGUAUUCUGCUGUAUAUCUC [C59U A64U], the self-cleavage was 0.25.

On to UAACAGGGGGCCACAGCAGAAGCGUUCACGUCGCAGCCCCUGUCAGAUUCUGGUGAAUUUGCGAAUUCUGCAGUAUAUCUC [C59U U72A], for which the self-cleavage turned out to be 0.4.

On to UAACAGGGGGCCACAGCAGAAGCGUUCACGUCGCAGCCCCUGUCAGAUUCUGGUGAAUUUGCGAAUUCUGCCGUAUAUCUC [C59U U72C], for which the self-cleavage was found to be 1.14.

In the case of UAACAGGGGGCCACAGCAGAAGCGUUCACGUCGCAGCCCCUGUCAGAUUCUGGUGAAUUUGCGAGUUCUGCUGUAUAUCUC [C59U A65G], the self-cleavage is 0.4.

As to UAACAGGGGGCCACAGCAGAAGCGUUCACGUCGCAGCCCCUGUCAGAUUCUGGUGAAUUUGUGAAUUCUGCUGUAUAUCUC [C59U C62U], the self-cleavage was found to be 0.16.

In the case of UAACAGGGGGCCACAGCAGAAGCGUUCACGUCGCAGCCCCUGUCAGAUUCUGGUGAAUAUGCGAAUUCUGCUGUAGAUCUC [C59A U76G], the self-cleavage worked out at 0.33.

Take UAACAGGGGGCCACAGCAGAAGCGUUCACGUCGCAGCCCCUGUCAGAUUCUGGUGAAUAUGCGAAUUCUGCUGUAAAUCUC [C59A U76A]: the self-cleavage is 0.43.

Consider UAACAGGGGGCCACAGCAGAAGCGUUCACGUCGCAGCCCCUGUCAGAUUCUGGUGAAUAUGCGAAUACUGCUGUAUAUCUC [C59A U67A], for which the self-cleavage stood at 0.26.

For UAACAGGGGGCCACAGCAGAAGCGUUCACGUCGCAGCCCCUGUCAGAUUCUGGUGAAUAUGCGAAUCCUGCUGUAUAUCUC [C59A U67C], the self-cleavage came out at 0.16.
